In US20240376151A1, “STAPLED PEPTIDES AND METHODS THEREOF” (FOG PHARMACEUTICALS, INC., priority 2022, published 2024):
Ends that are not written are not given here.

Target: T1, beta-catenin (Homo sapiens, UniProt P35222)
T1 construct: made in house; host or cells: E. coli BL21 (DE3) pLysS
T1 sequence (P35222 134-665): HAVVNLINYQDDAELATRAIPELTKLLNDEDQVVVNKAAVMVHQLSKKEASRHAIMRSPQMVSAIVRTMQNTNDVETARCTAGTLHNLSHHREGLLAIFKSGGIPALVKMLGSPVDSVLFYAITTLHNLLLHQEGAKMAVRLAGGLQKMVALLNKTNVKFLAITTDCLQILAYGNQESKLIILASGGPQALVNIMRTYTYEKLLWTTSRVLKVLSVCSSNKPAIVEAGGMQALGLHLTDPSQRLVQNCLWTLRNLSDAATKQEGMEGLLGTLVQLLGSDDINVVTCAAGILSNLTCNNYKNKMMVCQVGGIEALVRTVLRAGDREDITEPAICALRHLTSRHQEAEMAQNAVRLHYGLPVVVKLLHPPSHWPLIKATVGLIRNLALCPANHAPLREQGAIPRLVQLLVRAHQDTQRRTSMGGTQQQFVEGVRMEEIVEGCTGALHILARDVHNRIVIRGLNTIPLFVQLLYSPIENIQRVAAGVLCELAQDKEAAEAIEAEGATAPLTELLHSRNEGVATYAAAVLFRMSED
Assay: Phage Library Screening with NGS, beta-catenin
Assay type: binding
Conditions: for Target Concentration 10 (phage screen NGS readout): beta-catenin target concentration 10; for Target Concentration 10 (phage screen NGS readout) / Target Concentration 30 (phage screen NGS readout) / Target Concentration 100 (phage screen NGS readout) / Target Concentration 300 (phage screen NGS readout): no competitor; for Target Concentration 30 (phage screen NGS readout): beta-catenin target concentration 30; for Target Concentration 100 (phage screen NGS readout): beta-catenin target concentration 100; for Target Concentration 300 (phage screen NGS readout): beta-catenin target concentration 300; for Target Concentration 1000 (phage screen NGS readout): beta-catenin target concentration 1000

Row | Target Concentration BLANK (phage screen NGS readout) (first column) | Target Concentration BLANK (phage screen NGS readout) (fourth column) | Target Concentration BLANK (phage screen NGS readout) (second column) | Target Concentration BLANK (phage screen NGS readout) (third column) | Target Concentration 10 (phage screen NGS readout) | Target Concentration 30 (phage screen NGS readout) | Target Concentration 100 (phage screen NGS readout) | Target Concentration 300 (phage screen NGS readout) | Target Concentration 1000 (phage screen NGS readout) (first 1000 column) | Target Concentration 1000 (phage screen NGS readout) (second 1000 column) | Sequence
1 | 0 | 0 | 0 | 0 | 0 | 6 | 11 | 29 | 25 | 21 | DPADEDCILAAHVCRHF
2 | 0 | 0 | 0 | 0 | 0 | 5 | 24 | 36 | 45 | 30 | DPADNECILAAHICTLA
3 | 0 | 0 | 2 | 0 | 0 | 1 | 39 | 81 | 78 | 49 | DPADTECILAAHFCHYF
4 | 0 | 0 | 1 | 0 | 0 | 2 | 6 | 15 | 12 | 14 | DPADWICEHAALTCQEF
5 | 0 | 0 | 0 | 0 | 2 | 18 | 70 | 147 | 118 | 122 | DPADYDCILAAHICTNI
6 | 0 | 0 | 4 | 0 | 0 | 1 | 11 | 18 | 19 | 14 | DPADYECVIAAQVCQHF (not fully specified; cysteine pairing not given here)
7 | 0 | 0 | 0 | 0 | 0 | 0 | 21 | 15 | 46 | 22 | DPAEADCMMAAHICSNI
8 | 0 | 0 | 0 | 0 | 10 | 0 | 37 | 39 | 51 | 52 | DPAEAECILAAHICNIS
9 | 0 | 0 | 0 | 0 | 19 | 38 | 139 | 235 | 322 | 228 | DPAEAICILAAHECWWD
10 | 0 | 0 | 0 | 0 | 2 | 1 | 17 | 99 | 61 | 107 | DPAEFYCEMAAVHCELL
11 | 0 | 0 | 2 | 0 | 8 | 55 | 242 | 194 | 337 | 260 | DPAEHDCMLAAHFCRHF
12 | 0 | 0 | 0 | 0 | 0 | 0 | 0 | 15 | 38 | 26 | DPAEIICYEAAFLCQYQ
13 | 0 | 0 | 0 | 0 | 0 | 2 | 41 | 94 | 69 | 75 | DPAELACEWAAIHCELV
14 | 0 | 0 | 0 | 0 | 0 | 0 | 0 | 26 | 28 | 31 | DPAENTCSWAAEHCALV
15 | 0 | 0 | 2 | 0 | 0 | 1 | 22 | 51 | 69 | 40 | DPAESDCILAAYICYVE
16 | 0 | 0 | 0 | 0 | 0 | 0 | 31 | 42 | 40 | 51 | DPAEVDCIMAAHICVWD
17 | 0 | 0 | 0 | 0 | 8 | 26 | 67 | 109 | 142 | 130 | DPAEVECMLAAHVCRAF
18 | 1 | 0 | 4 | 0 | 6 | 24 | 148 | 448 | 431 | 449 | DPAEWACEHAALTCWDQ
